Like-named read-outs stand apart in the source and are kept apart here. Side chains are listed from the residue outwards. Ends that are not written are not given here. maleimide = maleimide function on the C-terminal Lys
Columns and labels:
[1] = target: 7xHis-SUMO-MtbClpC1 (M. tuberculosis) (UniProt P9WPC9); experiment: MST
[2] = target: 7xHis-SUMO-MtbClpC1 (M. tuberculosis) (UniProt P9WPC9); experiment: MST; remark: listed apart in the source
[3] = target: Leu-LFVQLASK peptide conjugated to CSGSK^TAMRA; experiment: fluorescence polarisation
[4] = target: Phe-LFVQLASK peptide conjugated to CSGSK^TAMRA; experiment: fluorescence polarisation
[5] = target: Trp-LFVQLASK peptide conjugated to CSGSK^TAMRA; experiment: fluorescence polarisation
[6] = target: Tyr-LFVQLASK peptide conjugated to CSGSK^TAMRA; experiment: fluorescence polarisation
[7] = target: T1, E. coli ClpS (E. coli, UniProt P0A8Q6 1-106); experiment: fluorescence polarisation
T1 sequence: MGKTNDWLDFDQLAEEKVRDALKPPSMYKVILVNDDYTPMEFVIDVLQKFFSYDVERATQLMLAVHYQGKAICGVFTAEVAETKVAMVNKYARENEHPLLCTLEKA

Sequence of 7xHis-SUMO-MtbClpC1 (M. tuberculosis) (P9WPC9 whole entry): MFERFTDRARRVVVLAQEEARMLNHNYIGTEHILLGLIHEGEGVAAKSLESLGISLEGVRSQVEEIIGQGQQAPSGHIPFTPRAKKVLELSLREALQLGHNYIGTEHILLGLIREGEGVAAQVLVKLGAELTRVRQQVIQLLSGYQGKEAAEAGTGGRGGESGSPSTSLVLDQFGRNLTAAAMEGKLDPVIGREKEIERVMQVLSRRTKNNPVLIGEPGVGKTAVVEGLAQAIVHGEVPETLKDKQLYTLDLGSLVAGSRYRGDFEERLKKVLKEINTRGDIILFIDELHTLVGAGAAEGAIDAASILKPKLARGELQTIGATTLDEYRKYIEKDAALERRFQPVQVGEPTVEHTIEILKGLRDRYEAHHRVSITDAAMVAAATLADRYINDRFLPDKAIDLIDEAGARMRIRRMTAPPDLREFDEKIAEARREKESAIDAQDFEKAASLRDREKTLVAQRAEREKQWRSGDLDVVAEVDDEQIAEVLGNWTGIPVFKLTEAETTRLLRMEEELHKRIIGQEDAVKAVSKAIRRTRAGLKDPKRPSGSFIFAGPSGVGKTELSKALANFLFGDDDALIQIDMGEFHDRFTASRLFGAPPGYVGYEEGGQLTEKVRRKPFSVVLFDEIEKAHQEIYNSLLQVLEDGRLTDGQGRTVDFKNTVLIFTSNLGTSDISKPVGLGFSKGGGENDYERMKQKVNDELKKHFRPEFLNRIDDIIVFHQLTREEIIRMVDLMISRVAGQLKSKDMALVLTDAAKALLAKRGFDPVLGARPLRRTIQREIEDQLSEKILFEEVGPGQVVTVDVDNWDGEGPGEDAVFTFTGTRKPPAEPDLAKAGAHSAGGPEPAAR

M. smegmatis ClpS (natural protein)
Kd [1]: 100 µM | Kd [2]: 3.5 µM | Kd [3]: 42 µM | Kd [4]: 6.5 µM | Kd [5]: 11 µM | Kd [6]: 8.8 µM

YLFVQLASK([maleimide-CSGSK(TAMRA)]) (not fully specified) [Tyr-LFVQLASK peptide conjugated to CSGSK^TAMRA]
binding result [7]: binds

LLFVQLASK([maleimide-CSGSK(TAMRA)]) (not fully specified) [Leu-LFVQLASK peptide conjugated to CSGSK^TAMRA]
binding result [7]: binds

WLFVQLASK([maleimide-CSGSK(TAMRA)]) (not fully specified) [Trp-LFVQLASK peptide conjugated to CSGSK^TAMRA]
binding result [7]: binds

FLFVQLASK([maleimide-CSGSK(TAMRA)]) (not fully specified) [Phe-LFVQLASK peptide conjugated to CSGSK^TAMRA]
binding result [7]: binds

Reference: doi:10.1101/2024.06.12.598358 (bioRxiv, 2024)
